According to PMC2739136:
Residue numbers refer to the chain shown, from its start.

Legend:
Assay in all cases: pull-down
MBP-TraR F161K, P33905 = target: T1, MBP-TraR F161K, P33905
T1 chain: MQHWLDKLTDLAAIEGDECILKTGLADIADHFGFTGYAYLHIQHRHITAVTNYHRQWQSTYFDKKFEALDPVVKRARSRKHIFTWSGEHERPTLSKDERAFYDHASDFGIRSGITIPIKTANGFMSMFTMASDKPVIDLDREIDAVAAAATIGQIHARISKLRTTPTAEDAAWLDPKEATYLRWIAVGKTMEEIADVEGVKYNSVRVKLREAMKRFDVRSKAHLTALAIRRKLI

MBP-TraR G153E, P33905 = target: T2, MBP-TraR G153E, P33905
T2 chain: T1 chain with G153E, K161F

MBP-TraR Q154E, P33905 = target: T3, MBP-TraR Q154E, P33905
T3 chain: T1 chain with Q154E, K161F

MBP-TraR S160F, P33905 = target: T4, MBP-TraR S160F, P33905
T4 chain: T1 chain with S160F, K161F

MBP-TraR G153A, P33905 = target: T5, MBP-TraR G153A, P33905
T5 chain: T1 chain with G153A, K161F

MBP-TraR R206Q, P33905 = target: T6, MBP-TraR R206Q, P33905
T6 chain: T1 chain with K161F, R206Q

MBP-TraR A150E, P33905 = target: T7, MBP-TraR A150E, P33905
T7 chain: T1 chain with A150E, K161F

MBP-TraR A222S, P33905 = target: T8, MBP-TraR A222S, P33905
T8 chain: T1 chain with K161F, A222S

B1: native TraR (wild type) (protein)
chain: T1 chain with K161F
**Q.** B1 was tested. Which heterodimer formation (% of wild type) (% of wild type) (MBP-TraR F161K, P33905) did it give?
**A.** 39

**Q.** And the heterodimer formation (% of wild type) (% of wild type) (MBP-TraR G153E, P33905)?
**A.** 19

**Q.** And the heterodimer formation (% of wild type) (% of wild type) (MBP-TraR Q154E, P33905)?
**A.** 25

**Q.** What about the heterodimer formation (% of wild type) (% of wild type) (MBP-TraR S160F, P33905) of the same protein?
**A.** 69

**Q.** What about the heterodimer formation (% of wild type) (% of wild type) (MBP-TraR G153A, P33905) of the same protein?
**A.** 61

**Q.** And the heterodimer formation (% of wild type) (% of wild type) (MBP-TraR R206Q, P33905)?
**A.** 71

**Q.** What about the heterodimer formation (% of wild type) (% of wild type) (MBP-TraR A150E, P33905) of the same protein?
**A.** 14

**Q.** And the heterodimer formation (% of wild type) (% of wild type) (MBP-TraR A222S, P33905)?
**A.** 53
